Test results published in article PMC5818423, “Molecular Evidence of Adenosine Deaminase Linking Adenosine A2A Receptor and CD26 Proteins” (Frontiers in Pharmacology, 2018).

Assays:
[1] = target: A2AR (human adenosine A2A receptor, non-fused) (human, UniProt P29274 1-412); test: cell-based or functional assay
[2] = target: A2AR-Nluc-spacer (human adenosine A2A receptor fused to NanoLuc on the N-terminal end, with spacer) (human, UniProt P29274 1-412); test: cell-based or functional assay
Sequence of A2AR-Nluc-spacer (human adenosine A2A receptor fused to NanoLuc on the N-terminal end, with spacer) (P29274 whole entry, the tested form may be a part): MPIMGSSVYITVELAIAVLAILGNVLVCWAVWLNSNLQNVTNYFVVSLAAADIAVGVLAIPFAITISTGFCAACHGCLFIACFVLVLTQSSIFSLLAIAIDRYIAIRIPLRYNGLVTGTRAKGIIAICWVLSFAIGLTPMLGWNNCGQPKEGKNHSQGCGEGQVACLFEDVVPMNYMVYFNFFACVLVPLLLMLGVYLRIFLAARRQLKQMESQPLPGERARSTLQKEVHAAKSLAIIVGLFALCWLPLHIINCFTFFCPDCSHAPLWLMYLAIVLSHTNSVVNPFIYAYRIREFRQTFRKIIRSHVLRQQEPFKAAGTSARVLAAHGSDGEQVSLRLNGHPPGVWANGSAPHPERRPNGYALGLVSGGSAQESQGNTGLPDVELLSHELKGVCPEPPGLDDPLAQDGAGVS

Sequence of A2AR (human adenosine A2A receptor, non-fused) (P29274 whole entry, the tested form may be a part): as above

B1: Bovine adenosine deaminase (ADA) (enzyme, UniProt P56658 1-363, looked up)
chain: MAQTPAFNKPKVELHVHLDGAIKPETILYYGRKRGIALPADTPEELQNIIGMDKPLSLPEFLAKFDYYMPAIAGCREAVKRIAYEFVEMKAKDGVVYVEVRYSPHLLANSKVEPIPWNQAEGDLTPDEVVSLVNQGLQEGERDFGVKVRSILCCMRHQPSWSSEVVELCKKYREQTVVAIDLAGDETIEGSSLFPGHVKAYAEAVKSGVHRTVHAGEVGSANVVKEAVDTLKTERLGHGYHTLEDATLYNRLRQENMHFEVCPWSSYLTGAWKPDTEHPVVRFKNDQVNYSLNTDDPLIFKSTLDTDYQMTKNEMGFTEEEFKRLNINAAKSSFLPEDEKKELLDLLYKAYGMPSPASAEQCL
- EC50: concentration of ADA (0.1 ng/ml to 10 ug/ml) providing half-maximal increase in binding of 2.2 nM [3H]ZM 241385 to membranes of transfected HEK-293T cells [1]: 4 ng/mL
- EC50: concentration of ADA (0.1 ng/ml to 10 ug/ml) providing half-maximal increase in binding of 2.2 nM [3H]ZM 241385 to membranes of transfected HEK-293T cells [2]: 14 ng/mL
